Experimental data taken from publication PMC5739008 (The ISME journal, 2017).

Target: the molecule itself
Test: SEC

B1: methanethiol oxidase (MTO) of Hyphomicrobium sp. VS (enzyme)
chain: DETCNSPFTTALITGQEQYLHVWTLGMPGVGDESDKLVTISVDPKSDKYGKVINTLSVGGRGEAHHTGFTDDRRYLWAGRLDDNKIFIFDLIDPANPKLIKTITDFADRTGYVGPHTFYALPGRMLIQALSNTKTHDGQTGLAVYSNAGELVSLHPMPVTDGGDGYGYDIGINPAKNVLLTSSFTGWNNYMMDLGKMVKDPEAMKRFGNTMAIWDLKSMKAEKILNVPGAPLEIRWSLKPEHNWAYTATALTSKLWLIKQDDKGEWIAKETGTIGDPSKIPLPVDISITADAKGLWVNTFLDGTTRFYDISEPEHPKEVFSKKMGNQVNMVSQSYDGKRVYFTTSLIANWDKKGAENDQWLKAYDWDGKELVEKFTVDFNELKLGRAHHMKFSSKTNAAELGTNQSFPTRQ
stoichiometry N: 4
